Data from patent US20260035458A1 (Astellas, published 2026).
Changes are numbered by the printed parent chain.

T1: human CLDN9 (human, UniProt O95484 1-217)
T1 construct: whole, on cells; Transiently expressed on HEK293 cells
T1 sequence (looked up): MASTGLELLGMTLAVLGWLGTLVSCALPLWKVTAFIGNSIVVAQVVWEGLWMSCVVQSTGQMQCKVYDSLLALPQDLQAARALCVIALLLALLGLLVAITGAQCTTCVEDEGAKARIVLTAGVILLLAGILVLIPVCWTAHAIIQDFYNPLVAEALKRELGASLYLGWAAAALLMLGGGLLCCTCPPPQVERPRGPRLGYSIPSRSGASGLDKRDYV

B1: XENP24644 (antibody, V domains shown)
VH: QVQLQQPGAELVRPGASVKLSCKASGYTFTSYWINWVKQRPGQGLEWIGNIYPSDSYTNYNQKFKDKATLTVDKSSSTAYMQLSSPTSEDSAVYYCTRSWRGNSFDYWGQGTTLTVSS
VL: DIVMTQSPSSLTVTAGEKVTMSCKSSQSLLNSGNQKNYLTWYQQKPGQPPKLLIYWASTRESGVPDRFTGSGSGTDFTLTISSVQAEDLAVYYCQNDYSYPFTFGSGTKLEIK
notes: also called H0L0 CLDN18.2; bivalent mAb
B2: XENP29476 (bispecific antibody)
heavy: EVQLVQSGAEVKKPGESLRISCKASGYTFTSYWINWVRQMPGKGLEWMGNIYPSDSYTNYNQKFQGHVTISVDKSISTAYLQWSSLKASDTAMYYCTRSWRGNSFDYWGQGTLVTVSSASTKGPSVFPLAPSSKSTSGGTAALGCLVKDYFPEPVTVSWNSGALTSGVHTFPAVLQSSGLYSLSSVVTVPSSSLGTQTYICNVNHKPSDTKVDKKVEPKSCDKTHTCPPCPAPPVAGPSVFLFPPKPKDTLMISRTPEVTCVVVDVKHEDPEVKFNWYVDGVEVHNAKTKPREEEYNSTYRVVSVLTVLHQDWLNGKEYKCKVSNKALPAPIEKTISKAKGQPREPQVYTLPPSREEMTKNQVSLTCDVSGFYPSDIAVEWESDGQPENNYKTTPPVLDSDGSFFLYSKLTVDKSRWEQGDVFSCSVMHEALHNHYTQKSLSLSPGK
chain: EVQLVQSGAEVKKPGESLRISCKASGYTFTSYWINWVRQMPGKGLEWMGNIYPSDSYTNYNQKFQGHVTISVDKSISTAYLQWSSLKASDTAMYYCTRSWRGNSFDYWGQGTLVTVSSASTKGPSVFPLAPSSKSTSGGTAALGCLVKDYFPEPVTVSWNSGALTSGVHTFPAVLQSSGLYSLSSVVTVPSSSLGTQTYICNVNHKPSNTKVDKKVEPKSCGGGGSGGGGSEVQLVESGGGLVQPGGSLRLSCAASGFTFSTYAMNWVRQAPGKGLEWVGRIRSKYNNYATYYADSVKGRFTISRDDSKNTLYLQMNSLRAEDTAVYYCVRHGNFGDSYVSWFAYWGQGTLVTVSSGKPGSGKPGSGKPGSGKPGSQAVVTQEPSLTVSPGGTVTLTCGSSTGAVTTSNYANWVQQKPGKSPRGLIGGTNKRAPGVPARFSGSLLGGKAALTISGAQPEDEADYYCALWYSNHWVFGGGTKLTVLGGGGSGGGGSKTHTCPPCPAPPVAGPSVFLFPPKPKDTLMISRTPEVTCVVVDVKHEDPEVKFNWYVDGVEVHNAKTKPREEQYNSTYRVVSVLTVLHQDWLNGKEYKCKVSNKALPAPIEKTISKAKGQPREPQVYTLPPSREQMTKNQVKLTCLVKGFYPSDIAVEWESNGQPENNYKTTPPVLDSDGSFFLYSKLTVDKSRWQQGNVFSCSVMHEALHNHYTQKSLSLSPGK
light: not shown
notes: also called anti-CLDN18.2× anti-CD3 bsAb; Fab2-scFv
B3: XENP29472 (bispecific antibody)
heavy: B2 heavy
chain: not shown
light: not shown
notes: also called anti-CLDN18.2× anti-CD3 bsAb; Fab-scFv
B4: XENP24647 (bispecific antibody)
heavy: QVQLQQPGAELVRPGASVKLSCKASGYTFTSYWINWVKQRPGQGLEWIGNIYPSDSYTNYNQKFKDKATLTVDKSSSTAYMQLSSPTSEDSAVYYCTRSWRGNSFDYWGQGTTLTVSSASTKGPSVFPLAPSSKSTSGGTAALGCLVKDYFPEPVTVSWNSGALTSGVHTFPAVLQSSGLYSLSSVVTVPSSSLGTQTYICNVNHKPSDTKVDKKVEPKSCDKTHTCPPCPAPPVAGPSVFLFPPKPKDTLMISRTPEVTCVVVDVKHEDPEVKFNWYVDGVEVHNAKTKPREEEYNSTYRVVSVLTVLHQDWLNGKEYKCKVSNKALPAPIEKTISKAKGQPREPQVYTLPPSREEMTKNQVSLTCDVSGFYPSDIAVEWESDGQPENNYKTTPPVLDSDGSFFLYSKLTVDKSRWEQGDVFSCSVMHEALHNHYTQKSLSLSPGK
chain: QVQLQQPGAELVRPGASVKLSCKASGYTFTSYWINWVKQRPGQGLEWIGNIYPSDSYTNYNQKFKDKATLTVDKSSSTAYMQLSSPTSEDSAVYYCTRSWRGNSFDYWGQGTTLTVSSASTKGPSVFPLAPSSKSTSGGTAALGCLVKDYFPEPVTVSWNSGALTSGVHTFPAVLQSSGLYSLSSVVTVPSSSLGTQTYICNVNHKPSNTKVDKKVEPKSCGGGGSGGGGSEVQLVESGGGLVQPGGSLRLSCAASGFTFSTYAMNWVRQAPGKGLEWVGRIRSKYNNYATYYADSVKGRFTISRDDSKNTLYLQMNSLRAEDTAVYYCVRHGNFGDSYVSWFAYWGQGTLVTVSSGKPGSGKPGSGKPGSGKPGSQAVVTQEPSLTVSPGGTVTLTCGSSTGAVTTSNYANWVQQKPGKSPRGLIGGTNKRAPGVPARFSGSLLGGKAALTISGAQPEDEADYYCALWYSNHWVFGGGTKLTVLGGGGSGGGGSKTHTCPPCPAPPVAGPSVFLFPPKPKDTLMISRTPEVTCVVVDVKHEDPEVKFNWYVDGVEVHNAKTKPREEQYNSTYRVVSVLTVLHQDWLNGKEYKCKVSNKALPAPIEKTISKAKGQPREPQVYTLPPSREQMTKNQVKLTCLVKGFYPSDIAVEWESNGQPENNYKTTPPVLDSDGSFFLYSKLTVDKSRWQQGNVFSCSVMHEALHNHYTQKSLSLSPGK
light: DIVMTQSPSSLTVTAGEKVTMSCKSSQSLLNSGNQKNYLTWYQQKPGQPPKLLIYWASTRESGVPDRFTGSGSGTDFTLTISSVQAEDLAVYYCQNDYSYPFTFGSGTKLEIKRTVAAPSVFIFPPSDEQLKSGTASVVCLLNNFYPREAKVQWKVDNALQSGNSQESVTEQDSKDSTYSLSSTLTLSKADYEKHKVYACEVTHQGLSSPVTKSFNRGEC
notes: as for B2
B5: XENP24645 (bispecific antibody)
heavy: B4 heavy
chain: not shown
light: B4 light
notes: expressed in HEK293E cells; also called anti-CLDN18.2× anti-CD3 bsAb; Fab-scFv
B6: XENP29471 (antibody, V domains shown)
VH: QVQLVQSGAEVKKPGASVKVSCKASGYTFTSYWINWVRQAPGQGLEWMGNIYPSDSYTNYNQKFQGRVTMTVDKSTSTAYMELSSLRSEDTAVYYCTRSWRGNSFDYWGQGTLVTVSS
VL: B1 VL with S9D, T12A, T14S, A15L, K18R, V19A, M21I, S22N, V84L, L89V
notes: also called H2L1 CLDN18.2; bivalent mAb
B7: XENP29470 (antibody, V domains shown)
VH: EVQLVQSGAEVKKPGESLRISCKASGYTFTSYWINWVRQMPGKGLEWMGNIYPSDSYTNYNQKFQGHVTISVDKSISTAYLQWSSLKASDTAMYYCTRSWRGNSFDYWGQGTLVTVSS
VL: B1 VL with S9D, T12A, T14S, A15L, K18R, V19A, M21I, S22N, V84L, L89V
notes: also called H1L1 CLDN18.2 (printed H1LI); bivalent mAb

Molecular target: T1, human CLDN9
Test: flow cytometry on HEK293 cells transiently transfected with human CLDN9, AF647 secondary antibody

Row | binding result | Binder
1 | no binding (tested: 30000 ng/ml) | B1
2 | no binding (tested: 30000 ng/ml) | B2
3 | no binding (tested: 30000 ng/ml) | B3
4 | no binding (tested: 30000 ng/ml) | B4
5 | no binding (tested: 30000 ng/ml) | B5

Molecular target: T2, human CLDN18.2 (human)
T2 construct: also called claudin 18 splice variant 2
Test: flow cytometry on SNU-601 (2E4) cells (enriched for CLDN18.2), Alexa Fluor 647 anti-human IgG Fcγ secondary
Source text: Control samples included bsAbs having murine CLDN18.2 ABDs, bivalent anti-CLDN18.2 mAbs, cells only, and secondary antibody only.

Row | EC50 (read off the curve) | Binder
6 | ~0.4 µg/mL | B1
7 | ~0.9 µg/mL | B6
8 | ~0.5 µg/mL | B7
9 | ~0.5 µg/mL | B2
10 | ~0.6 µg/mL | B4

Molecular target: T2, human CLDN18.2
Test: flow cytometry on HEK293 cells transiently transfected with human CLDN18.2 (column hCLDN18.2 EC50 (nM))
Procedure: Therefore, the anti-CLDN18.2× anti-CD3 bsAbs were investigated for their binding to human CLDN18.2, cynomolgus CLDN18.2, and murine CLDN18.2. HEK293 cells were transiently transfected to express human, cynomolgus, or mouse CLDN18.2. 48 hours post transfection, cells were mixed with indicated concentrations of the bsAbs and incubated for 1 hour at 4° C. Cells were washed and then stained with a secondary Ab for 1 hour at 4° C. After two more washes, cells were analyzed on an Attune flow cytometer.

Row | EC50 | Binder
11 | 4 nM | B1
12 | 6 nM | B2
13 | 146 nM | B3
14 | 4 nM | B4
15 | 145 nM | B5
